Results published in patent US20260274985A1 (MYTHIC THERAPEUTICS, published 2026).

T1: TROP2 on TROP2-positive NCI-H1975 cells (human, UniProt P09758 27-323)
T1 sequence: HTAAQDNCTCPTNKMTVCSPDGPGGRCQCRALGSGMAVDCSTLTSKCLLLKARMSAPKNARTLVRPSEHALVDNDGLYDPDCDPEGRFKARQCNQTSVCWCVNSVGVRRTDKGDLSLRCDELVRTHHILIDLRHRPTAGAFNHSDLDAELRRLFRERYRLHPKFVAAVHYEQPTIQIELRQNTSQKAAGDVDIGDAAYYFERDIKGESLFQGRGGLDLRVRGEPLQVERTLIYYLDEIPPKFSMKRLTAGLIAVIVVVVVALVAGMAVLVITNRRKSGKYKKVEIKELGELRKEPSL

T2: Human TROP2 Protein, His Tag (Acro Biosystems) (human, UniProt P09758 27-274)
T2 construct: Bought protein; also called TACSTD2; not shown: His tag
T2 sequence: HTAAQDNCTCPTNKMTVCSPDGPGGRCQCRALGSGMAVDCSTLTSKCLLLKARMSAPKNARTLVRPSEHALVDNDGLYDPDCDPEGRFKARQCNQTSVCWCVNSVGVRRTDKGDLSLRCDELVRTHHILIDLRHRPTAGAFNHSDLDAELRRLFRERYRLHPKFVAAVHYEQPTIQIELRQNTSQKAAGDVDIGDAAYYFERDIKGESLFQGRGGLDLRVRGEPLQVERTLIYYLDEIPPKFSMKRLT

T3: Human TROP2 Protein, His Tag (Acro Biosystems) (human, UniProt P09758 27-274)
T3 construct: not shown: His tag
T3 sequence (looked up): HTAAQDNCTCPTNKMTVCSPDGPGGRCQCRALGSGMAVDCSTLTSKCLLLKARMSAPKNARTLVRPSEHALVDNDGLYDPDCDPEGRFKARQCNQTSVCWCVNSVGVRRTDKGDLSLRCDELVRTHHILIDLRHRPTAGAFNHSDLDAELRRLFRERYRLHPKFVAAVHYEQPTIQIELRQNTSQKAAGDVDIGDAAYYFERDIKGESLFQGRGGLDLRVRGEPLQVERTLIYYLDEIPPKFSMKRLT

B1: MYT12375 (antibody, human IgG1, V domains shown)
VH: QVQLQQSGSELKKPGASVKVSCKASGYTFTNYGMNWVKQAPGQGLKWMGWINTYTGEPTYTDDFKGRFAFSLDTSVSTAYLQISSLKADDTAVYFCARGGFGSSYWYFDVWGQGSLVTVSS
VL: DIQLTQSPSSLSASVGDRVSITCKASQDVSIAVAWYQQKPGKAPKLLIYSHSHRYTGVPDRFSGSGSGTDFTLTISSLQPEDFAVYYCQQHYHTPLTFGAGTKVEIK
B2: MYT11682 (antibody, human IgG1, V domains shown)
VH: QVQLVQSGAEVKKPGASVKVSCKASGYTFTTAGMQWVRQAPGQGLEWMGWINTHSGVPKYAEDFKGRVTISADTSTSTAYLQLSSLKSEDTAVYYCARSGFGSSYWYFDVWGQGTLVTVSS
VL: DIQMTQSPSSLSASVGDRVTITCKASQDHSTAVAWYQQKPGKAPKLLIYSASYRYTGVPSRFSGSGSGTDFTLTISSLQPEDFAVYYCQQHYITPLTFGQGTKLEIK
B3: MYT11766 (antibody, human IgG1, V domains shown)
VH: QVQLQESGPGLVKPSETLSLTCTVSGGSISSYGVHWIRQPPGKGLEWIGVIWTSGVTDYNSALMGRVTISVDTSKNQFSLKLSSVTAADTAVYYCARDGDYDRYTMDYWGQGTLVTVSS
VL: DIVMTQSPDSLAVSLGERATINCRASKSVSTSGYSYMHWYQQKPGQPPKLLIYLASNLESGVPDRFSGSGSGTDFTLTISSLQAEDVAVYYCHHSRELPYTFGQGTKLEIK
B4: MYT11770 (antibody, human IgG1, V domains shown)
VH: QVQLQESGPGLVKPSETLSLTCTVSGGSISSYGVHWIRQPPGKGLEWIGVIWTSGVTDYNSALMGRVTISVDTSKNQFSLKLSSVTAADTAVYYCARDGDYDRYTMDYWGQGTLVTVSS
VL: DIVMTQSPDSLAVSLGERATINCRASKSVSTSGYSYMHWYQQKPGQPPKLLIYLASNLESGVPDRFSGSGSGTDFTLTISSLQAEDVAVYYCQHSRHLPYTFGQGTKLEIK
B5: MYT12440 (antibody, human IgG1, V domains shown)
VH: QVQLQESGPGLVKPSETLSLTCTVSGGSISSYGVHWIRQPPGKGLEWIGVIWTSGVTDYNSALMGRVTISVDTSKNQFSLKLSSVTAADTAVYYCARDGDYDRYTMDYWGQGTLVTVSS
VL: DIVMTQSPDSLAVSLGERATINCRASKSVSTSGYSYMHWYQQKPGQPPKLLIYLASNLHSGVPDRFSGSGSGTDFTLTISSLQAEDVAVYYCHHSRELPYTFGQGTKLEIK
B6: MYT12433 (hu7E6SVG variant, HCV substitutions at 33, 56, 106) (antibody, V domains shown)
VH: QVQLQESGPGLVKPSETLSLTCTVSGGSISSYHVHWIRQPPGKGLEWIGVIWTSGHTDYNSALMGRVTISVDTSKNQFSLKLSSVTAADTAVYYCARDGDYDRYTHDYWGQGTLVTVSS
VL: DIVMTQSPDSLAVSLGERATINCRASKSVSTSGYSYMHWYQQKPGQPPKLLIYLASNLESGVPDRFSGSGSGTDFTLTISSLQAEDVAVYYCQHSRELPYTFGQGTKLEIK
B7: MYT13444 (antibody, V domains shown)
VH: QVQLQESGPGLVKPSETLSLTCTVSGGSISSYGVHWIRQPPGKGLEWIGVIWTSGHTDYNSALMGRVTISVDTSKNQFSLKLSSVTAADTAVYYCARDGDYDRYTMDYWGQGTLVTVSS
VL: DIVMTQSPDSLAVSLGERATINCRASKSVSTSGYSYMHWYQQKPGQPPKLLIYLASNLHSGVPDRFSGSGSGTDFTLTISSLQAEDVAVYYCQHSRELPYHFGQGTKLEIK
notes: Full-length IgG from Expi293 supernatant; also called hu7E6SVG heavy chain and light chain pairing variant
B8: MYT13439 (antibody, V domains shown)
VH: QVQLQESGPGLVKPSETLSLTCTVSGGSISSYGVHWIRQPPGKGLEWIGVIWTSGHTDYNSALMGRVTISVDTSKNQFSLKLSSVTAADTAVYYCARDGDYDRYTMDYWGQGTLVTVSS
VL: DIVMTQSPDSLAVSLGERATINCRASKSVSTSGYSYMHWYQQKPGQPPKLLIYLASNLHSGVPDRFSGSGSGTDFTLTISSLQAEDVAVYYCQASRELPYTFGQGTKLEIK
notes: as for B7
B9: MYT13447 (antibody, V domains shown)
VH: QVQLQESGPGLVKPSETLSLTCTVSGGSISSYGVHWIRQPPGKGLEWIGVIWTSGVTDYNSALMGRVTISVDTSKNQFSLKLSSVTAADTAVYYCARDGDYDRYTHDYWGQGTLVTVSS
VL: DIVMTQSPDSLAVSLGERATINCRASKSVSTSGYSYMHWYQQKPGQPPKLLIYLASNLHSGVPDRFSGSGSGTDFTLTISSLQAEDVAVYYCQHSRELPYHFGQGTKLEIK
notes: as for B7
B10: MYT13438 (antibody, V domains shown)
VH: QVQLQESGPGLVKPSETLSLTCTVSGGSISSYGVHWIRQPPGKGLEWIGVHWTSGVTDYNSALMGRVTISVDTSKNQFSLKLSSVTAADTAVYYCARDGDYDRYTMDYWGQGTLVTVSS
VL: DIVMTQSPDSLAVSLGERATINCRASKSVSTSGYSYMHWYQQKPGQPPKLLIYLASNLHSGVPDRFSGSGSGTDFTLTISSLQAEDVAVYYCQASRELPYTFGQGTKLEIK
notes: as for B7
B11: MYT12473 (hu7E6SVG variant, LCV substitutions at 94, 97, 101 (Ala at 94)) (antibody, V domains shown)
VH: QVQLQESGPGLVKPSETLSLTCTVSGGSISSYGVHWIRQPPGKGLEWIGVIWTSGVTDYNSALMGRVTISVDTSKNQFSLKLSSVTAADTAVYYCARDGDYDRYTMDYWGQGTLVTVSS
VL: DIVMTQSPDSLAVSLGERATINCRASKSVSTSGYSYMHWYQQKPGQPPKLLIYLASNLESGVPDRFSGSGSGTDFTLTISSLQAEDVAVYYCQASRHLPYHFGQGTKLEIK
notes: Full IgG in Expi293 supernatant
B12: MYT12468 (hu7E6SVG variant, LCV substitutions at 60, 94, 101 (Ala at 94)) (antibody, V domains shown)
VH: QVQLQESGPGLVKPSETLSLTCTVSGGSISSYGVHWIRQPPGKGLEWIGVIWTSGVTDYNSALMGRVTISVDTSKNQFSLKLSSVTAADTAVYYCARDGDYDRYTMDYWGQGTLVTVSS
VL: DIVMTQSPDSLAVSLGERATINCRASKSVSTSGYSYMHWYQQKPGQPPKLLIYLASNLEHGVPDRFSGSGSGTDFTLTISSLQAEDVAVYYCQASRELPYHFGQGTKLEIK
notes: as for B11
B13: MYT12434 (hu7E6SVG variant, HCV substitutions at 33, 103, 106) (antibody, V domains shown)
VH: QVQLQESGPGLVKPSETLSLTCTVSGGSISSYHVHWIRQPPGKGLEWIGVIWTSGVTDYNSALMGRVTISVDTSKNQFSLKLSSVTAADTAVYYCARDGDYDHYTHDYWGQGTLVTVSS
VL: DIVMTQSPDSLAVSLGERATINCRASKSVSTSGYSYMHWYQQKPGQPPKLLIYLASNLESGVPDRFSGSGSGTDFTLTISSLQAEDVAVYYCQHSRELPYTFGQGTKLEIK
B14: MYT13442 (antibody, V domains shown)
VH: QVQLQESGPGLVKPSETLSLTCTVSGGSISSYGVHWIRQPPGKGLEWIGVIWTSGVTDYNSALMGRVTISVDTSKNQFSLKLSSVTAADTAVYYCARDGDYDRYTHDYWGQGTLVTVSS
VL: DIVMTQSPDSLAVSLGERATINCRASKSVSTSGYSYMHWYQQKPGQPPKLLIYLASNLHSGVPDRFSGSGSGTDFTLTISSLQAEDVAVYYCQASRELPYTFGQGTKLEIK
notes: as for B7
B15: MYT12431 (hu7E6SVG variant, HCV substitutions at 33, 51, 106) (antibody, V domains shown)
VH: QVQLQESGPGLVKPSETLSLTCTVSGGSISSYHVHWIRQPPGKGLEWIGVHWTSGVTDYNSALMGRVTISVDTSKNQFSLKLSSVTAADTAVYYCARDGDYDRYTHDYWGQGTLVTVSS
VL: DIVMTQSPDSLAVSLGERATINCRASKSVSTSGYSYMHWYQQKPGQPPKLLIYLASNLESGVPDRFSGSGSGTDFTLTISSLQAEDVAVYYCQHSRELPYTFGQGTKLEIK

Experiments:
[1] = target: T1, TROP2 on TROP2-positive NCI-H1975 cells; assay: cell-based or functional assay
[2] = target: T2, Human TROP2 Protein, His Tag (Acro …); assay: BLI (Octet)
[3] = target: T3, Human TROP2 Protein, His Tag (Acro …); assay: BLI (Octet) [2/2]

| Binder | cytotoxicity on TROP2-positive NCI-H1975 cells (antibody complexed to secondary antibody-MMAF, cell titer glow assay) [1] | binding result [2] | binding result [3] |
| --- | --- | --- | --- |
| B1 | ~27 % greater cytotoxicity compared to WT datopotamab |  |  |
| B2 | ~20 % greater cytotoxicity compared to WT datopotamab |  |  |
| B3 | ~30 % greater cytotoxicity compared to WT datopotamab |  |  |
| B4 | ~30 % greater cytotoxicity compared to WT datopotamab |  |  |
| B5 | ~30 % greater cytotoxicity compared to WT datopotamab |  |  |
| B6 |  | no binding (tested: 50 nM) |  |
| B7 |  |  | no binding (tested: 50 nM) |
| B8 |  |  | no binding (tested: 50 nM) |
| B9 |  |  | no binding (tested: 50 nM) |
| B10 |  |  | no binding (tested: 50 nM) |
| B11 |  | no binding (tested: 50 nM) |  |
| B12 |  | no binding (tested: 50 nM) |  |
| B13 |  | no binding (tested: 50 nM) |  |
| B14 |  |  | no binding (tested: 50 nM) |
| B15 |  | no binding (tested: 50 nM) |  |
